This experiment concerns the target T1, CD122-Fc (UniProt P14784 27-240, limits assumed).
T1 construct: Analyte flowed over the chip in SPR at 500, 250, 125, 62.5 and 31.25 nM; also called Fc-CD122; IL-2Rbeta
T1 sequence (looked up): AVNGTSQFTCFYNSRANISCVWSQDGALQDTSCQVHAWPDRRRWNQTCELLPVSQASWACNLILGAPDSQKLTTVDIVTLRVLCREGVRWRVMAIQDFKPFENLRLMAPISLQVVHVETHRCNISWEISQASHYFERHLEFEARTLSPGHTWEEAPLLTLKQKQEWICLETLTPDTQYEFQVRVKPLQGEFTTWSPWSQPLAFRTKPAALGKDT
The experiment in a line: SPR, protease-cleaved construct amine-coupled on chip, CD122-Fc flowed. In general terms: SPR reads the build-up and loss of mass on a sensor chip optically.

Method: For SPR studies testing binding of masked and non-masked IL-2 polypeptide constructs, Reichert Carboxymethyl Dextran Hydrogel Surface Sensor Chips were coated and immobilized with the construct of interest (e.g., a masked IL-2 polypeptide construct or non-masked IL-2 polypeptide construct) at 30 ug/ml in 10 mM Sodium Acetate, pH 5.0 via amine coupling with EDC and NHS. […] Using a Reichert 4Channel SPR, dilutions of CD25 or CD122 were flowed over the clips with the immobilized construct to determine the on rate at 25 degrees C. At equilibrium (approximately 3 minutes), the flow buffer was changed to PBST, to determine the off rates over 6 minutes. Between each run the chip was regenerated with 10 mM glycine, pH 2.0.
For some structures, when applicable, the KD was determined for the construct with or without having been previously cleaved by a protease.

B1: AK168 after protease cleavage (ligand)
chain: LYHPSGPAPTSSSTKKTQLQLEHLLLDLQMILNGINNYKNPKLTAMLTAKFAMPKKATELKHLQCLEEALKPLEEVLNLAQSKNFHLRPRDLISNINVIVLELKGSETTFMCEYADETATIVEFLNRWITFAQSIISTLT
notes: also called AK168 Cleavage Product
As a reminder, the Kd is the free concentration of one partner at which half of the binding sites on the other are occupied at equilibrium, for simple one-to-one binding. A higher Kd goes with a looser complex. For the molecule B1, the affinity, expressed as Kd, was 175 nM.

(Values after patent US20230151072A1 (XILIO DEVELOPMENT, published 2023).)
